Laboratory results reported in the supplement of paper PMC6755084.

B1: F1*; the commonest letter at each place (parent)
chain: GAGACCGCAACTGAAAAGTTGTTATCACTTGTCGTAAGACACTTTGGATGGGTTGAAGTTCTGCACGTAGAAGCAAAAGGC

Variants of: B1
Assay: fraction ligated after 30 min (ligated reads / total reads); higher = more ligase activity
Conditions: with F1*sub RNA substrate (template-directed ligation), 42 °C
In short: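 Ribozyme variants were transcribed with T7 from PCR-amplified oligo-pool templates and gel-purified. Ligated and unligated bands, separated on gel, were reverse transcribed with barcoded primers and sequenced on a MiSeq, with core bases filtered at quality ≥20. Fraction ligated per variant was computed as ligated reads divided by total reads.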
For GAGACCGCAACTGAAAAGTTGTTATCACTTGTCGTAAGACATTGTGGATGGGTTGAAGTTCTGCACGTAGAAGCAAAAGGC, the fraction ligated was 0.833.
GAGACCGCAACTGAAAAGTTGTTATCACTTGTCGTAAGACATTATGGATGGGTTGAAGTTCTGCACGTAGAAGCAAAAGGC was tested, and the fraction ligated was 0.862.
GAGACCGCAACTGAAAAGTTGTTATCACTTGTCGTAAGACATTCTGGATGGGTTGAAGTTCTGCACGTAGAAGCAAAAGGC gave a fraction ligated of 0.855.
GAGACCGCAACTGAAAAGTTGTTATCACTTGTCGTAAGACACATTGGTTGGGTTGAAGTTCTGCACGTAGAAGCAAAAGGC gave a fraction ligated of 0.774.
GAGACCGCAACTGAAAAGTTGTTATCACTTGTCGTAAGACACATTGGGTGGGTTGAAGTTCTGCACGTAGAAGCAAAAGGC gave a fraction ligated of 0.807.
For GAGACCGCAACTGAAAAGTTGTTATCACTTGTCGTAAGACACATTGGCTGGGTTGAAGTTCTGCACGTAGAAGCAAAAGGC, the fraction ligated was 0.734.
GAGACCGCAACTGAAAAGTTGTTATCACTTGTCGTAAGACAGTTTGGATGGGTTCAAGTTCTGCACGTAGAAGCAAAAGGC was tested, and the fraction ligated was 0.758.
GAGACCGCAACTGAAAAGTTGTTATCACTTGTCGTAAGACAGTTTGGATGGGTTAAAGTTCTGCACGTAGAAGCAAAAGGC showed a fraction ligated of 0.853.
In the case of GAGACCGCAACTGAAAAGTTGTTATCACTTGTCGTAAGACAGTTTGGATGGGTTTAAGTTCTGCACGTAGAAGCAAAAGGC, the fraction ligated is reported as 0.809.
GAGACCGCAACTGAAAAGTTGTTATCACTTGTCGTAAGACAGTTCGGATGGGTTGAAGTTCTGCACGTAGAAGCAAAAGGC was tested, and the fraction ligated was 0.756.
GAGACCGCAACTGAAAAGTTGTTATCACTTGTCGTAAGACAGTTGGGATGGGTTGAAGTTCTGCACGTAGAAGCAAAAGGC gave a fraction ligated of 0.291.
Variant GAGACCGCAACTGAAAAGTTGTTATCACTTGTCGTAAGACAGTTAGGATGGGTTGAAGTTCTGCACGTAGAAGCAAAAGGC has a fraction ligated of 0.796.
Work on GAGACCGCAACTGAAAAGTTGTTATCACTTGTCGTAAGACATTTTGGATGGGTTGAAGTTCTGCACGTAGAAGCAAAAGGC yielded a fraction ligated of 0.856.
GAGACCGCAACTGAAAAGTTGTTATCACTTGTCGTAAGACACATTGGATGGGTTGAAGTTCTGCACGTAGAAGCAAAAGGC gave a fraction ligated of 0.855.
Variant GAGACCGCAACTGAAAAGTTGTTATCACTTGTCGTAAGACATCTTGGATGGGTTGAAGTTCTGCACGTAGAAGCAAAAGGC has a fraction ligated of 0.828.
Work on GAGACCGCAACTGAAAAGTTGTTATCACTTGTCGTAAGACATGTTGGATGGGTTGAAGTTCTGCACGTAGAAGCAAAAGGC yielded a fraction ligated of 0.818.
With GAGACCGCAACTGAAAAGTTGTTATCACTTGTCGTAAGACATATTGGATGGGTTGAAGTTCTGCACGTAGAAGCAAAAGGC the fraction ligated was 0.866.
GAGACCGCAACTGAAAAGTTGTTATCACTTGTCGTAAGACAGCTTGGATGGGTTGAAGTTCTGCACGTAGAAGCAAAAGGC was tested, and the fraction ligated was 0.836.
Work on GAGACCGCAACTGAAAAGTTGTTATCACTTGTCGTAAGACAGGTTGGATGGGTTGAAGTTCTGCACGTAGAAGCAAAAGGC yielded a fraction ligated of 0.827.
For GAGACCGCAACTGAAAAGTTGTTATCACTTGTCGTAAGACAGATTGGATGGGTTGAAGTTCTGCACGTAGAAGCAAAAGGC, the fraction ligated was 0.856.
GAGACCGCAACTGAAAAGTTGTTATCACTTGTCGTAAGACAGTTTGGAAGGGTTGAAGTTCTGCACGTAGAAGCAAAAGGC gave a fraction ligated of 0.79.
GAGACCGCAACTGAAAAGTTGTTATCACTTGTCGTAAGACAGTTTGGAGGGGTTGAAGTTCTGCACGTAGAAGCAAAAGGC gave a fraction ligated of 0.777.
GAGACCGCAACTGAAAAGTTGTTATCACTTGTCGTAAGACAGTTTGGACGGGTTGAAGTTCTGCACGTAGAAGCAAAAGGC was tested, and the fraction ligated was 0.727.
GAGACCGCAACTGAAAAGTTGTTATCACTTGTCGTAAGACACATTGGATGGGTTGCAGTTCTGCACGTAGAAGCAAAAGGC showed a fraction ligated of 0.79.
For GAGACCGCAACTGAAAAGTTGTTATCACTTGTCGTAAGACACATTGGATGGGTTGTAGTTCTGCACGTAGAAGCAAAAGGC, the fraction ligated was 0.81.
With GAGACCGCAACTGAAAAGTTGTTATCACTTGTCGTAAGACACATTGGATGGGTTGGAGTTCTGCACGTAGAAGCAAAAGGC the fraction ligated was 0.782.
Variant GAGACCGCAACTGAAAAGTTGTTATCACTTGTCGTAAGACATTTTGGATAGGTTGAAGTTCTGCACGTAGAAGCAAAAGGC has a fraction ligated of 0.634.
GAGACCGCAACTGAAAAGTTGTTATCACTTGTCGTAAGACATTTTGGATCGGTTGAAGTTCTGCACGTAGAAGCAAAAGGC was tested, and the fraction ligated was 0.497.
GAGACCGCAACTGAAAAGTTGTTATCACTTGTCGTAAGACATTTTGGATTGGTTGAAGTTCTGCACGTAGAAGCAAAAGGC showed a fraction ligated of 0.808.
GAGACCGCAACTGAAAAGTTGTTATCACTTGTCGTAAGACACATTGGATAGGTTGAAGTTCTGCACGTAGAAGCAAAAGGC showed a fraction ligated of 0.267.
GAGACCGCAACTGAAAAGTTGTTATCACTTGTCGTAAGACATTTTGGATGGGTTGTAGTTCTGCACGTAGAAGCAAAAGGC was tested, and the fraction ligated was 0.811.
Work on GAGACCGCAACTGAAAAGTTGTTATCACTTGTCGTAAGACATTTTGGATGGGTTGGAGTTCTGCACGTAGAAGCAAAAGGC yielded a fraction ligated of 0.821.
With GAGACCGCAACTGAAAAGTTGTTATCACTTGTCGTAAGACATTTTGGATGGGTTGCAGTTCTGCACGTAGAAGCAAAAGGC the fraction ligated was 0.797.
In the case of GAGACCGCAACTGAAAAGTTGTTATCACTTGTCGTAAGACATTTTGTATGGGTTGAAGTTCTGCACGTAGAAGCAAAAGGC, the fraction ligated is reported as 0.408.
Variant GAGACCGCAACTGAAAAGTTGTTATCACTTGTCGTAAGACATTTTGAATGGGTTGAAGTTCTGCACGTAGAAGCAAAAGGC has a fraction ligated of 0.823.
Variant GAGACCGCAACTGAAAAGTTGTTATCACTTGTCGTAAGACATTTTGCATGGGTTGAAGTTCTGCACGTAGAAGCAAAAGGC has a fraction ligated of 0.11.
GAGACCGCAACTGAAAAGTTGTTATCACTTGTCGTAAGACAGTTTGGATCGGTTGAAGTTCTGCACGTAGAAGCAAAAGGC showed a fraction ligated of 0.27.
GAGACCGCAACTGAAAAGTTGTTATCACTTGTCGTAAGACAGTTTGGATTGGTTGAAGTTCTGCACGTAGAAGCAAAAGGC gave a fraction ligated of 0.713.
GAGACCGCAACTGAAAAGTTGTTATCACTTGTCGTAAGACATTTTGGCTGGGTTGAAGTTCTGCACGTAGAAGCAAAAGGC was tested, and the fraction ligated was 0.779.
GAGACCGCAACTGAAAAGTTGTTATCACTTGTCGTAAGACATTTTGGTTGGGTTGAAGTTCTGCACGTAGAAGCAAAAGGC gave a fraction ligated of 0.796.
Work on GAGACCGCAACTGAAAAGTTGTTATCACTTGTCGTAAGACATTTTGGGTGGGTTGAAGTTCTGCACGTAGAAGCAAAAGGC yielded a fraction ligated of 0.806.
With GAGACCGCAACTGAAAAGTTGTTATCACTTGTCGTAAGACAGTATGGATGGGTTGAAGTTCTGCACGTAGAAGCAAAAGGC the fraction ligated was 0.851.
GAGACCGCAACTGAAAAGTTGTTATCACTTGTCGTAAGACAGTGTGGATGGGTTGAAGTTCTGCACGTAGAAGCAAAAGGC showed a fraction ligated of 0.841.
With GAGACCGCAACTGAAAAGTTGTTATCACTTGTCGTAAGACAGTCTGGATGGGTTGAAGTTCTGCACGTAGAAGCAAAAGGC the fraction ligated was 0.851.
Variant GAGACCGCAACTGAAAAGTTGTTATCACTTGTCGTAAGACATTTCGGATGGGTTGAAGTTCTGCACGTAGAAGCAAAAGGC has a fraction ligated of 0.79.
Variant GAGACCGCAACTGAAAAGTTGTTATCACTTGTCGTAAGACATTTAGGATGGGTTGAAGTTCTGCACGTAGAAGCAAAAGGC has a fraction ligated of 0.799.
For GAGACCGCAACTGAAAAGTTGTTATCACTTGTCGTAAGACATTTGGGATGGGTTGAAGTTCTGCACGTAGAAGCAAAAGGC, the fraction ligated was 0.557.
Work on GAGACCGCAACTGAAAAGTTGTTATCACTTGTCGTAAGACATTTTGGATGGGTTAAAGTTCTGCACGTAGAAGCAAAAGGC yielded a fraction ligated of 0.844.
For GAGACCGCAACTGAAAAGTTGTTATCACTTGTCGTAAGACATTTTGGATGGGTTCAAGTTCTGCACGTAGAAGCAAAAGGC, the fraction ligated was 0.797.
GAGACCGCAACTGAAAAGTTGTTATCACTTGTCGTAAGACATTTTGGATGGGTTTAAGTTCTGCACGTAGAAGCAAAAGGC was tested, and the fraction ligated was 0.848.
Work on GAGACCGCAACTGAAAAGTTGTTATCACTTGTCGTAAGACACATTGAATGGGTTGAAGTTCTGCACGTAGAAGCAAAAGGC yielded a fraction ligated of 0.804.
Variant GAGACCGCAACTGAAAAGTTGTTATCACTTGTCGTAAGACACATTGCATGGGTTGAAGTTCTGCACGTAGAAGCAAAAGGC has a fraction ligated of 0.515.
With GAGACCGCAACTGAAAAGTTGTTATCACTTGTCGTAAGACACATTGTATGGGTTGAAGTTCTGCACGTAGAAGCAAAAGGC the fraction ligated was 0.643.
For GAGACCGCAACTGAAAAGTTGTTATCACTTGTCGTAAGACACATTGGATGGGTTGAGGTTCTGCACGTAGAAGCAAAAGGC, the fraction ligated was 0.793.
Variant GAGACCGCAACTGAAAAGTTGTTATCACTTGTCGTAAGACACATTGGATGGGTTGATGTTCTGCACGTAGAAGCAAAAGGC has a fraction ligated of 0.833.
GAGACCGCAACTGAAAAGTTGTTATCACTTGTCGTAAGACACATTGGATGGGTTGACGTTCTGCACGTAGAAGCAAAAGGC was tested, and the fraction ligated was 0.792.
With GAGACCGCAACTGAAAAGTTGTTATCACTTGTCGTAAGACATTTTGGATGGGTTGACGTTCTGCACGTAGAAGCAAAAGGC the fraction ligated was 0.812.
For GAGACCGCAACTGAAAAGTTGTTATCACTTGTCGTAAGACATTTTGGATGGGTTGATGTTCTGCACGTAGAAGCAAAAGGC, the fraction ligated was 0.847.
Work on GAGACCGCAACTGAAAAGTTGTTATCACTTGTCGTAAGACATTTTGGATGGGTTGAGGTTCTGCACGTAGAAGCAAAAGGC yielded a fraction ligated of 0.812.
Work on GAGACCGCAACTGAAAAGTTGTTATCACTTGTCGTAAGACATTTTGGAAGGGTTGAAGTTCTGCACGTAGAAGCAAAAGGC yielded a fraction ligated of 0.791.
GAGACCGCAACTGAAAAGTTGTTATCACTTGTCGTAAGACATTTTGGAGGGGTTGAAGTTCTGCACGTAGAAGCAAAAGGC was tested, and the fraction ligated was 0.782.
GAGACCGCAACTGAAAAGTTGTTATCACTTGTCGTAAGACATTTTGGACGGGTTGAAGTTCTGCACGTAGAAGCAAAAGGC gave a fraction ligated of 0.774.
GAGACCGCAACTGAAAAGTTGTTATCACTTGTCGTAAGACACATTAGATGGGTTGAAGTTCTGCACGTAGAAGCAAAAGGC gave a fraction ligated of 0.789.
With GAGACCGCAACTGAAAAGTTGTTATCACTTGTCGTAAGACACATTCGATGGGTTGAAGTTCTGCACGTAGAAGCAAAAGGC the fraction ligated was 0.789.
With GAGACCGCAACTGAAAAGTTGTTATCACTTGTCGTAAGACACATTTGATGGGTTGAAGTTCTGCACGTAGAAGCAAAAGGC the fraction ligated was 0.81.
GAGACCGCAACTGAAAAGTTGTTATCACTTGTCGTAAGACATTTTCGATGGGTTGAAGTTCTGCACGTAGAAGCAAAAGGC was tested, and the fraction ligated was 0.813.
For GAGACCGCAACTGAAAAGTTGTTATCACTTGTCGTAAGACATTTTTGATGGGTTGAAGTTCTGCACGTAGAAGCAAAAGGC, the fraction ligated was 0.805.
GAGACCGCAACTGAAAAGTTGTTATCACTTGTCGTAAGACATTTTAGATGGGTTGAAGTTCTGCACGTAGAAGCAAAAGGC showed a fraction ligated of 0.835.
